Measurements published in paper PMC3567247 (Biochemistry, 2012).
Read-outs that look alike come from different tables or passages of the source.

Tests used:
Experiment in all cases: SPR
[1] = molecular target: T1, Lymphotoxin-α (UniProt P01374 35-205)
T1 sequence (looked up): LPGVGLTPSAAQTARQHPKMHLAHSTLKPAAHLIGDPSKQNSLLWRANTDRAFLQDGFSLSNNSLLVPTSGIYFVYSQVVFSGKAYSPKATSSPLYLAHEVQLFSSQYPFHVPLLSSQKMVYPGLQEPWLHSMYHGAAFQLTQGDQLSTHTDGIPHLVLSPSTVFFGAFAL

[2] = molecular target: T1, Lymphotoxin-α; remark: listed apart in the source
[3] = molecular target: T1, Lymphotoxin-α; remark: listed apart in the source

B1: Soluble TNFR1 extracellular domain, residues 40-201 (receptor, human, UniProt P19438 40-201, looked up)
chain: RDSVCPQGKYIHPQNNSICCTKCHKGTYLYNDCPGPGQDTDCRECESGSFTASENHLRHCLSCSKCRKEMGQVEISSCTVDRDTVCGCRKNQYRHYWSENLFQCFNCSLCLNGTVHLSCQEKQNTVCTCHAGFFLRENECVSCSNCKKSLECTKLCLPQIEN
- Kd [1]: 46 nM
- koff [1]: 0.0092 s⁻¹
- kon [1]: 170000 M⁻¹ s⁻¹
- Kd [2]: 50 ± 10 nM
- Kd [3]: 57 nM
